Reference: publication PMC12795676, “Integrin α5β1 mediates the inhibitory effects of vasoinhibin on angiogenesis and vascular permeability [drawing 1]” (The Journal of Biological Chemistry, 2025)
Numbering of substitutions follows the chain as printed. Names may count otherwise.

B1: Vi-H46A: Vi mutant H46A (protein)
chain: LPICPGGAARCQVTLRDLFDRAVVLSHYIHNLSSEMFSEFDKRYTAGRGFITKAINSCHTSSLATPEDKEQAQQMNQKDFLSLIVSILRSWNEPLYHLVTEVRGMQEAPEAILSKAVEIEEQTKRLLEGMELIVSQVHPETKENEIYPVWSGLPSLQMADEESRLSAYYNLLHCLRRDSHKIDNYLKLLKCRIIHNNNC
B2: Vi-R48A: Vi mutant R48A (protein)
chain: B1 chain with A46H, R48A
B3: Vi-H46A/R48A: Vi double mutant H46A/R48A (protein)
chain: B1 chain with R48A

target: T1, integrin α5β1 (Homo sapiens, UniProt P05556+P08648); assay: ELISA, binding to immobilized integrin α5β1; settings: 100 nM mutant, compared with Vi
T1 construct: purchased Bio-Techne
T1 sequence (P08648 42-995 limits assumed): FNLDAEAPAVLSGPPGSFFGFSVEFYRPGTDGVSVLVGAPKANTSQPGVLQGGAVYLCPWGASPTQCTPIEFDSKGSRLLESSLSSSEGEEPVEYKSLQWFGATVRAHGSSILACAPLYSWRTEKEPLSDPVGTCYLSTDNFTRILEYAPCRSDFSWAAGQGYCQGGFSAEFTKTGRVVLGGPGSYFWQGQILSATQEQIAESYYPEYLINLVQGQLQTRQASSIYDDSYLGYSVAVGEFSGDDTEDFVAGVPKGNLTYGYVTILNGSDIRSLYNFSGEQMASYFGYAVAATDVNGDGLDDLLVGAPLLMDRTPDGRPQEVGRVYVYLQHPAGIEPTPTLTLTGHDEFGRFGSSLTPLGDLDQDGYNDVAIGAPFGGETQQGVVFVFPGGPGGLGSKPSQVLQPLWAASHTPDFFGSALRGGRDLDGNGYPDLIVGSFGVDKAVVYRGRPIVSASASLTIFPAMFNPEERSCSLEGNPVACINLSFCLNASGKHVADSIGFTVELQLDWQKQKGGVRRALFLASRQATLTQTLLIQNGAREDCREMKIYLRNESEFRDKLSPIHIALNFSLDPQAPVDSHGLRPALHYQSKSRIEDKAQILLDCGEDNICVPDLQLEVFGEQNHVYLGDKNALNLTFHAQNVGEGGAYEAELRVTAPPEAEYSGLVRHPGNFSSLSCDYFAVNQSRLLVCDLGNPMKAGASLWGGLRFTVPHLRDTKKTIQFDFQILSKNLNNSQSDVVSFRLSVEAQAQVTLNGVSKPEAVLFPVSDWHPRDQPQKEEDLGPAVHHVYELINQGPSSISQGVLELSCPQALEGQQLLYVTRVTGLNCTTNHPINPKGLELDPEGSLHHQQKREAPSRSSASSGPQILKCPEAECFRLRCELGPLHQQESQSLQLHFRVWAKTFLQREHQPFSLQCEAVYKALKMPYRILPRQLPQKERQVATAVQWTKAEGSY
T1 sequence (P05556 21-728 limits assumed): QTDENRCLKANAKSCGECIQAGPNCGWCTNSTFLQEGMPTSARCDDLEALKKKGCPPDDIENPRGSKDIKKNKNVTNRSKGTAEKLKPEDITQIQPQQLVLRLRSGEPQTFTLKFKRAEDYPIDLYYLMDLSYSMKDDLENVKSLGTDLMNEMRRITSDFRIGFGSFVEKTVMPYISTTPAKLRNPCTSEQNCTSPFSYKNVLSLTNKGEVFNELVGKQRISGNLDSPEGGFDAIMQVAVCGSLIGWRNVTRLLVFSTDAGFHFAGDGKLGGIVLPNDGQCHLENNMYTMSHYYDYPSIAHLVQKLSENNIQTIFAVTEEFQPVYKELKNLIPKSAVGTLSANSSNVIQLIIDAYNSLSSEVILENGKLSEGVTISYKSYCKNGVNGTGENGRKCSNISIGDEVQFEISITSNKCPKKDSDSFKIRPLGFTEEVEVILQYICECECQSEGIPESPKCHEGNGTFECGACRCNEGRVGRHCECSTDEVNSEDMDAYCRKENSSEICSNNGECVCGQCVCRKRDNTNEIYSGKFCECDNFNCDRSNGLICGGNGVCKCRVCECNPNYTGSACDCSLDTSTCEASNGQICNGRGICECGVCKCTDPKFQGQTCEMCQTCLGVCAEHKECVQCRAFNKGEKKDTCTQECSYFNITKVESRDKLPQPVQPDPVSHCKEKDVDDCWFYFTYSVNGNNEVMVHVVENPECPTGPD
Procedure: Vi ([49]) and its mutants were produced as reported ([14]). HUVECs were cultured as reported ([14], [50]).
Plates coated with 2 μg mL^−1 integrin α5β1, PAI-1, or PAI-1-uPA complex (37 °C, 10 min) were incubated with B-Vi45-51, Vi, or 100 nM ViH46A, ViR48A, or ViH46A/R48A. Competition used excess Src, alanine mutants, or THGR peptides. Detection used horseradish peroxidase antibodies and 3,3′,5,5′-tetramethylbenzidine.

Integrin α5β1 binding of Vi mutants, reduced integrin binding:
B1
B2
B3
